Assay results published in patent publication US20210246218A1 (LYVGEN BIOPHARMA SUZHOU, published 2021).

Biological target: T1, human CD19 on CHO cells (human, UniProt P15391 20-556)
T1 construct: whole, on cells
T1 sequence (looked up): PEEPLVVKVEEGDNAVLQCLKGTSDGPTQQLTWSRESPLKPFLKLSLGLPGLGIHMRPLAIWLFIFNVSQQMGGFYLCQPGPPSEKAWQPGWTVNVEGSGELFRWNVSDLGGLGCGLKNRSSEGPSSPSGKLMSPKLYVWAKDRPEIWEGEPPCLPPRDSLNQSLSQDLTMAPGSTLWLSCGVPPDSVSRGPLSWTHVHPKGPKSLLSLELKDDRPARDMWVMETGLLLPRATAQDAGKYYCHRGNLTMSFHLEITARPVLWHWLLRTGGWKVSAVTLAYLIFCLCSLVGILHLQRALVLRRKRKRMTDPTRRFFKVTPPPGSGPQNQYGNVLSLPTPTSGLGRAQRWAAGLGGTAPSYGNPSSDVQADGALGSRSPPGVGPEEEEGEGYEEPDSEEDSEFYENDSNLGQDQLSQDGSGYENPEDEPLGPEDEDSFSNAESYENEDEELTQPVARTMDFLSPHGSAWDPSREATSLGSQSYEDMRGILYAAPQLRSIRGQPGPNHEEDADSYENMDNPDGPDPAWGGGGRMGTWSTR
Assay: flow cytometry on CHO cells over-expressing the target
Method: The cells were resuspended in ice cold assay buffer at 2*10\hat{ }6/mL and transferred to 96-well V-bottom plate with 100 μL/well. […] The plate was incubated in the dark for 2 hours at 4° C. The cells were washed 3 times by centrifugation at 1000 g for 3 min and resuspended in 100 μL ice cold assay buffer containing goat F(ab′)₂ anti-human IgG-Fc (PE) or PE goat anti-mouse IgG antibody. The plate was incubated in the dark for another 1 hour at 4° C. The cells were washed 2 times by centrifugation at 1000 g for 3 min and resuspended in ice cold assay buffer containing 2% PFA and analyzed on the flow cytometer immediately.

B1: Clone 3712-IgG1v (IgG1v/kappa) (antibody)
heavy: QVQLVQSGAEVKKPGASVKVSCKASGYTFAGFEMHWVRQAPGQGLEWMGAIDPKTGGTDYNQKFKDRVTMTRDTSISTAYMELSRLRSDDTAVYYCARDLGYFDVWGQGTLVTVSSASTKGPSVFPLAPSSKSTSGGTAALGCLVKDYFPEPVTVSWNSGALTSGVHTFPAVLQSSGLYSLSSVVTVPSSSLGTQTYICNVNHKPSNTKVDKKVEPKSCDKTHTCPPCPAPELLGPSVFLFPPKPKDTLMISRTPEVTCVVVDVEHEDPEVKFNWYVDGVEVHNAKTKPREEQYNSTYRVVSVLTVLHQDWLNGKEYKCKVSNKALPAPIEKTISKAKGQPREPQVYTLPPSREEMTKNQVSLTCLVKGFYPSDIAVEWESNGQPENNYKTTPPVLDSDGSFFLYSKLTVDKSRWQQGNVFSCSVMHEALHNHYTQKSLSLSPGK
light: DIQMTQSPSSLSASVGDRVTITCRASQDIRSNLNWYQQKPGGAVKLLIYYTSRLHSGVPSRFSGSGSGTDYTLTISSLQPEDFATYFCQQSEKLPRTFGGGTKVEIRRTVAAPSVFIFPPSDEQLKSGTASVVCLLNNFYPREAKVQWKVDNALQSGNSQESVTEQDSKDSTYSLSSTLTLSKADYEKHKVYACEVTHQGLSSPVTKSFNRGEC
notes: copies: 2 + 2
B1: no binding.
